Results: the RNAGym collection of RNA variant scans (doi:10.1073/pnas.2313332121)

B1: TPR t1 (parent)
chain: GACCAAUCUGCCCUCAGAGCUCGAGAACAUCUUCGGAUGCAGAGGAGGCAGGCUUCGGUGGCGCGAUAGCGCCAACGUCCUCAACCUCCAAUGCAUCCCACCACAUGAUGAUGCCUGAAGAGCCUUGGUUUUUUG

Variants of: B1
Assay: polymerase ribozyme fitness, log enrichment relative to wild type (log ratio); higher = more active; in vitro selection for triplet polymerase activity
Outline: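 To select mutant libraries of each subunit of a heterodimeric triplet polymerase ribozyme, built by PCR and transcribed, each was annealed with a biotinylated primer, partner subunit and triplets, then incubated frozen at −7 °C. Extended constructs were gel-excised, captured on streptavidin beads and amplified by RT-PCR, in one round carried out in triplicate. Illumina sequencing of input and output libraries kept genotypes with ≥10 input reads and ≥1 read per output. Fitness is the base-2 logarithm of genotype enrichment relative to wild-type enrichment, from inverse-variance-weighted replicate averages.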

Variant | polymerase ribozyme fitness (log ratio)
GACCAAUCUACCCUGAGAGCUCGAGAACAUCUUCGGAUGCAGAGGAGGCAGGCUUCGGUGUCGCGAUAGCGCCAACGUCCUCAACCUCCAAUGCAUCCCACCACAUGAUGAUGCCUGAAGAGCCUUGGUUUUUUG [G10A C15G G61U] | -3.16
GACCAAUCUACCGUCAGAGCUGGAGAACAUCUUCGGCUGCAGAGGAGGCAGGCUUCGGUGGCGCGAUAGCGACAACGUCCUCAACCUCCAAUGCUUCCCACCACAUGAUGAUGCCUGAAGAGCCUUGGUUUUUUG [G10A C13G C22G A37C C72A A95U] | -4.63
GACCAAUCUACCCUCAGAGAUCGAGAACAUCUUCGGAUGCAGAGGAGGCAGGCUUCGGUGGCGCGAUAGCGCCAACGUCCUCAACCACCAAUGCAUCCCACCACAUGAUGAUGCCUGAAGAGCUUUGGUUUUUUG [G10A C20A U87A C124U] | -0.469
GACCAAUCUACCCUCAGAGCUCGAGAACAUCUUCGGAUGCAGAGGAGGCAGGCUUCGGUGGCGCGAUAGCGCCAACGUCCUCAACCUCCAAUGCAUUCCACCACAUGAUGAUGCCUGAAGAGCCUUGGUUUUUUG [G10A C97U] | -0.852
GACCAAUCUAGCCUCAGAGCUCGAGAACAUCUUCGGAUGCAGAGGAGGCAGGCUUCGGUGGCGCGAUAGGGCCAACGUCCUCAACCUCCAAUGCAUCCCACCACAUGAUGAUGCCUGAAGAGCCUUGGUUUUUUG [G10A C11G C70G] | -2.13
GACCAAUCUACCCUCAGAGCUCGAGAAGAUCUUCGGAUGCAGAGGAGGCAGGCUUCGGUGGCGCGAUAGCGCCAACGUCCUCAACCUCCAAUGCAUCCCACCACAAGAUGAUGCCUGAAGAGCCUUUCUUUUUUG [G10A C28G U106A G127U G128C] | -3.76
GACCAAUCUACCUUCAGAGCUCGAGAACAGCUUCGGAUGCAGAGGCGGCAGGCUUCGGUGGCGCGAUAGCGUCAACGUCCUCAACCUCCAAUGCAUCCCACCACAUGAUGAUGCCUGAAGAGGCUUGGUUUUUUG [G10A C13U U30G A46C C72U C123G] | -6.25
GACCAAUCUACCCUCAGAGCUCGAGAACAUCUUCGGAUGCAGAGGAGGCAGGCUUCGGUGGCGCGAUAGCGCUAACGUCCUCAACCUCCAAUGCAUCCCACCACAUGAUGAUGCCCGAAGAGCCUUGGUUUUUUG [G10A C73U U116C] | -1.59
GACCAAUCUACCCUCAGAGCUCGAGAACAUCUUCGGAUGCAGAGGAGGCAGGCUUUGGUGGCGCGAUAGCGCCCUCGUCCUCAACCUCCAAUUCAUCCCACCACAUGAUGAUGCCUGAAGAGCCUUGGUUUUUUG [G10A C56U A74C A75U G93U] | -0.9
GACCAAUCUACCCUCAGAGCUCGAGAACAUCUUCGGAUGCAGAGGAAGCAGGCUUCGGUGGCGCGAUGGCGCCAACGUCCUCAACCUCCAAUGCAUCCCACCACAUGACGAUGCCUGAAGAGGCUUGGUUUUUUG [G10A G47A A68G U109C C123G] | -6.84
GACCAAUCUACCCUCAGAGCUCGAGAACAUCUUCGGAUGCAGAGGAGGCAGGCUUCGGUGGCGUGAUAGCGCCAACGUCCUCAACCUCCAAUGCAUCCCACCACAUGAUGAUGCCUGAAGAGCCUUGGGUUUUUG [G10A C64U U129G] | -1.78
GACCAAUCUACCCUCAGAGCUCGAGAACAUCUUCGGAUGCAGAGGAGGCAGGCUUCGGUGGCGCGAUAGCGCCAACGUCCUCAACCUACGAUGCAUCCCACCACAUGAUGAUGCCUGAAGAUCCUUGGUUUUGUG [G10A C88A A90G G122U U133G] | 0.185
GACCAAUCUACCCUCAGAGCUCGAGAACAUCUUCGGAUGCAGAGGAGGCAGGCUUCGCUGGCGCGAUAGCGCCAACGUCCUCAACCUCCAAUGCAUCCCACCACAUGAUGGUGCCUGAAGAGCCUUGGUUUUUUG [G10A G58C A111G] | 0.287
GACCAAUCUACCCUCAGAGCUCGAGAACAUCUUCGGAUGCAGAGGAGGUAGGCUUCGGUGGCGCGAUAGCGCCAACGUCCUCAACCUCCAAUGCAUCCCACCACAUGAUGAUGCCUGAAGAGCCUUGGUUUUUUG [G10A C49U] | -0.363
GACCAAUCUACCCUCAGAGCUCGAGAACAUCUUCGGAUGCAGAGGAGGCAGACUUCGGUAGCGCGAUAGCGCCAACGUACUCAACCUCCAAUGCAUCCCACCACAUGAUGAUGCCUGAAGAGCCUUGGUUUUUUG [G10A G52A G60A C79A] | -1.36
GACCAAUCUACCCUCAGAGCUCGAGAACAUCUUCGGAUGCAGAGAAGGCAGGCUUCGGUGGCUCGAUAGCGCCAACGUCCUAAAACUCCAACGCAUCCCACCACAUGAUGAUGCCUGAAGAGCCUUGGUUUUUUG [G10A G45A G63U C82A C85A U92C] | -5.42
GACCAAUCUACCCUCAGAGCUCGAGAACAUCUUAGGAUGCAGAGGAGGCAGGCUUCGGUGGCGCGAUAGCGCCAACGUCCUCAACCUCCAAUGCAUCCCACCACAUGAUGAUGCCUGAAGAGCCUUGGUUUUUUG [G10A C34A] | -2.87
GACCAAUCUACCUUCAGAGCUCGAGAACAUCUUCGGAGGCAGAGGAGGCAGGCUUUGGUGGCGCGAUAGCGCCAACGUCCUGAACCUCCAAUGCAUCCCACCACAUGAUGAUGCCUGAAGAGCCUUGGUUUUUUG [G10A C13U U38G C56U C82G] | -1.27
GACCAAUCUACCCUCAGAGCUCGAGAACAUCUUCGGAUGAAGAGGAGGCAGGCUUAGGUGGCGCGAUAGCGCCAACGUCCUCACACUCCAAUGCAUCCAACCACAUGAUGAUGCUUGAAGAGCCUUGGUUUUUUG [G10A C40A C56A A84C C85A C99A C115U] | -7.46
GACCAAUCUACCCUCAGAGCUCGAGAACAUCUUCGGAUUCAGAGGAGGCAGGCUUCGGUGGCGCGAUAGCGCCAACGUCCUCAACCUCCCAUGCAUCCCACCACAAGAUGAUGCCUGAAGAGCCUUGGUUUUUUG [G10A G39U A90C U106A] | -2.41
GACCAAUCUACCCUCAGAGCUCGAGAACAUCUUCGGAUGCAGAGGAGGCAGGCUUCGGUGGCGCGAUAGUGCCAACGUCCUCAACCUCCAAUGCAUCCCACCACAUGAUGAUGCCUGAAGUGCCUUGGUUUUUUG [G10A C70U A121U] | 1.19
